Key:
[1] = biological target: Clostridioides difficile transferase B component, CDTb(45-876), activated with trypsin (Clostridioides difficile) (UniProt O32739); assay: SDS-PAGE of SDS-resistant oligomers
[2] = biological target: Clostridioides difficile transferase B component, CDTb(45-876), activated with trypsin (Clostridioides difficile) (UniProt O32739); assay: SEC

“Clostridioides difficile transferase B component, CDTb(45-876), activated with trypsin (from UniProt O32739 45-876) (natural protein)” gave a fold oligomer formed with 2.5 M ethanol against water [1] of 7.5 fold and a stoichiometry N [2] of 7.

Reference: article doi:10.1101/2025.05.06.652354
